# Assay results from patent US20250179196A1 (Janssen / Centocor, published 2025).
# Experiments:
# [1] = molecular target: T1, Recombinant human IL-23 receptor (IL-23R) extracellular domain (ECD) protein (human, UniProt Q5VWK5 24-355); assay: SPR Biacore 8K, supernatant, analysis 1
# T1 construct: also called human IL-23R ECD; hu IL-23R ECD
# T1 sequence: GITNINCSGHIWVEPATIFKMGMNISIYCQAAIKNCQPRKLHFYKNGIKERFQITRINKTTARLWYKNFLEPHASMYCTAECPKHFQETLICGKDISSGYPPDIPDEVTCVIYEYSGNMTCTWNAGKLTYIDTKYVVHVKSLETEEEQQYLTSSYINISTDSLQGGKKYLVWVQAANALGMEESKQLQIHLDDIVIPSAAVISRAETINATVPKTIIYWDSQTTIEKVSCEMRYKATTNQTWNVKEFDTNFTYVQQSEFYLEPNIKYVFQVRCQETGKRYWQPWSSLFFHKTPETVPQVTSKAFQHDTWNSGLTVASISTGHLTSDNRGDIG
# Description: (§1) Affinity by SPR using Biacore 8K. Affinity measurements using Surface Plasmon Resonance (SPR) were performed using a Biacore 8K system (Cytiva). […] Approximately 9000-10000 RU (response units) of mAbs were immobilized. The kinetic experiments were performed at 25° C. in running buffer 1× of (HBS-P+ Buffer 10× (Cytiva #BR100671)+100 μg/ml BSA). To perform kinetic experiments, approximately 150 RU of mAbs were captured followed by injections of human IL-23R or rat IL-23R at concentrations ranging from 0.8 nM to 500 nM (in a 5-fold serial dilution). The association phase was monitored for 3 minutes at 50 μL/min, then followed by 30 minutes of buffer flow (dissociation phase). […] The collected data were processed using Biacore insight Evaluation software (Version 3.0.12.15655). The kinetic analysis of the data was performed using a Langmuir 1:1 binding model. The result for each mAb was reported in the format of Ka (On-rate), Kd (Off-rate) and KD (equilibrium dissociation constant).
# [2] = molecular target: T1, Recombinant human IL-23 receptor …; assay: SPR Biacore 8K, supernatant, analysis 2
# Description: as §1
Binder,Kd [1],koff [1],kon [1],Kd [2],koff [2],kon [2]
"I23RB69 (antibody, mouse IgG2a, kappa, V domains shown, mouse immunization; mouse IgG2a/kappa) VH: EVQLQQSGAELVKPGASVKISCKASGYSFTGYNMNWVKQSHGKSLEWIGNINPFYDKTSYNQKFKGKATLTVDKASSTAYMQLNSLTSEDSAVYYCARQLGLKGFAYWGQGTLVTVSA VL: DIVMTQSHKFMSTSVGDRVSITCKASQDVSTAVAWYQQKPGQSPKLLIYSASYRYTGVPDRFTGSGSGTDFTFTISSVQAEDLAVYYCQQHYSTPWTFGGGTKLEMKR",263 nM,0.0493 s⁻¹,188000 M⁻¹ s⁻¹,,,
"I23RB317 (antibody, mouse IgG2a, kappa, V domains shown, phage display; human V regions, mouse IgG2a/kappa constant regions) VH: QVQLVQSGAEVKKPGSSVKVSCKASGGTFSSYAISWVRQAPGQGLEWMGGIIPIFGTANYAQKFQGRVTITADESTSTAYMELSSLRSEDTAVYYCARGNGVNYHSELDYWGQGTLVTVSS VL: EIVLTQSPATLSLSPGERATLSCRASQSVDSFLAWYQQKPGQAPRLLIYTASNRATGIPARFSGSGSGTDFTLTISSLEPEDFAVYYCQQGNSAPFTFGQGTKVEIKR",25.2 nM,0.000596 s⁻¹,23600 M⁻¹ s⁻¹,,,
"I23RB31 (antibody, mouse IgG2a, kappa, V domains shown, mouse immunization; mouse IgG2a/kappa) VH: EFQLQQSGAEMVRPGASVKLSCKASGYTFTGYWMNWVKQRPGQGLEWIGKIDPSDTETHYNQNFKDKATLTVDKSSSTAYMQLNSLTSEDSAVYYCARWGLGRNFAMDYWGQGTTLTVSS VL: DIVLTQSPATLSVTPGDRVSLSCRASQSISDHLHWYQQKSHESPRLLIKFASQSISGIPSRFSGSGSGSDFTLSIDSVEPEDVGVYYCQNGHSFPLTFGSGTKLEIKR",18.9 nM,0.00123 s⁻¹,65500 M⁻¹ s⁻¹,8.55 nM,0.000781 s⁻¹,91300 M⁻¹ s⁻¹
"I23RB91 (antibody, mouse IgG2a, kappa, V domains shown, mouse immunization; mouse IgG2a/kappa) VH: EFQLQQFGPELLKPGASVKISCKASGYTFTDYIMHWVKQSHGKSLEWIGGISPNYGGTGYNGKFKDKATLTVDKSSSTAYMELRSLTSEDSAVYYCARFNNYYYFDYWGQGTTLTVSS VL: DIKMTQSPSSMYASLGERVTITCKASQDINSYLSWCQQKPGKSPKALIYRANSLVDGVPSRFSGSGSGQDYSLTISSLEYEDMGIYYCLQYDEFPYTFGGGTKLEMKR",5.15 nM,0.00011 s⁻¹,21400 M⁻¹ s⁻¹,,,
"I23RB177 (antibody, mouse IgG2a, kappa, V domains shown, mouse immunization; mouse IgG2a/kappa) VH: EVQLQQSGPELLKPGASVKISCKASGYTITDYTMHWVKQSHGKSLEWIGGINPNYGGTSYNEKFKDKATLTVDKSSSTAYMELRSLTSEDSAVFYCVRGNIYFDYWGQGTTLTVSS VL: NTQMTQSPSSMYASLGERVTITCKASQDINSYLSWFQQKPGKSPKALIYRANRLVDGVPSRFSGSGSGQDYSLTISSLEYEDMGIYYCQQYDEFPRTFGAGTKLELKR",5.7 nM,0.000107 s⁻¹,18800 M⁻¹ s⁻¹,,,
"I23RB85 (antibody, mouse IgG2a, kappa, V domains shown, mouse immunization; mouse IgG2a/kappa) VH: DVQLQESGPGLVAPSQSLSITCTVSGFSFNTYAITWVRQPPGRGLEWLGVLWPGGGISYNLALKSRLTISRDSSKSQVFLEMNSLQTDDTARYYCARNWRHYDGSYAMDFWGQGTSVTVSS VL: DIVLTQSPLSLFVSLGDQASISCRSSQSLVHSNGNTYLHWYLQKPGQSPKLLIYKVSNRFSGVPDRFSGSGSGTDFTLKISRVEAEDLGVYFCSQSTHVPWTFGGGTRLEIKR",1.08 nM,0.000226 s⁻¹,210000 M⁻¹ s⁻¹,1.43 nM,0.000178 s⁻¹,124000 M⁻¹ s⁻¹
"I23RB180 (antibody, mouse IgG2a, kappa, V domains shown, mouse immunization; mouse IgG2a/kappa) VH: QVTLKESGPGILQPSQTLSLTCSFSGFSLSTYGMGVGWIRQPSGKGLEWLANIWWNDSKYHNAALKSRLTISKDTSKNQVFLKIASVDTADTATYYCGRIDGYYECVDVWGTGTSVTVSS VL: DIQMTQSPASLSASVGETVTITCRASVNIHNYLAWYQQKQGKSPQLLVYNAKTLADGVPSRFSGSGSGTQYSLKINSLQPEDFGSYYCQHFWTTPYMYTFGAGTKLELKR",150 nM,0.0302 s⁻¹,201000 M⁻¹ s⁻¹,,,
"I23RB45 (antibody, mouse IgG2a, kappa, V domains shown, mouse immunization; mouse IgG2a/kappa) VH: QVTLKESGPGILQPSQTLSLTCSFSGFSLSTYGMGVSWIRQPSGKGLEWLAHIYWDDDKRYNPSLKSRLTISKDTSNNQVFLKITSVDTADTATYYCAQRALPLLGQKAPFDYWGQGTTLTVSS VL: DIVLTQSQKFISTSVGDRVSITCKASQNVRTAVAWYQQKPGQSPKLLIYLPSNRHTGVPDRFTGSGSGTVFTLTISNVQSEDQADYFCLQHWNYPLTFGAGTKLELKR",21 nM,0.00332 s⁻¹,158000 M⁻¹ s⁻¹,22.5 nM,0.00456 s⁻¹,203000 M⁻¹ s⁻¹
"I23RB321 (antibody, mouse IgG2a, kappa, V domains shown, phage display; human V regions, mouse IgG2a/kappa constant regions) VH: QVQLVQSGAEVKKPGSSVKVSCKASGGTFSSYGISWVRQAPGQGLEWMGWISAIFGTTNYAQKFQGRVTITADESTSTAYMELSSLRSEDTAVYYCARHWLQSFDYWGQGTLVTVSS VL: DIQMTQSPSSLSASVGDRVTITCRASQSIGGDLNWYQQKPGKAPKLLIYAASSLQSGVPSRFSGSGSGTDFTLTISSLQPEDFATYYCQQSYSTPLTFGQGTKVEIKR",18.4 nM,0.000384 s⁻¹,20900 M⁻¹ s⁻¹,,,
"I23RB264 (antibody, mouse IgG2a, kappa, V domains shown, phage display; human V regions, mouse IgG2a/kappa constant regions) VH: QVQLVQSGAEVKKPGSSVKVSCKASGGTFSSYAISWVRQAPGQGLEWMGGIIPIFGTANYAQKFQGRVTITADESTSTAYMELSSLRSEDTAVYYCARRSSPGFDYWGQGTLVTVSS VL: DIQMTQSPSSLSASVGDRVTITCRASQSIDNDLNWYQQKPGKAPKLLIYNASSLQSGVPSRFSGSGSGTDFTLTISSLQPEDFATYYCQQPYSIPLTFGQGTKVEIKR",17.9 nM,0.000847 s⁻¹,47400 M⁻¹ s⁻¹,,,
"I23RB261 (antibody, mouse IgG2a, kappa, V domains shown, phage display; human V regions, mouse IgG2a/kappa constant regions) VH: QVQLVQSGAEVKKPGSSVKVSCKASGGTFSSYAISWVRQAPGQGLEWMGWISPYFGTANYAQKFQGRVTITADESTSTAYMELSSLRSEDTAVYYCARMYRQGFDYWGQGTLVTVSS VL: DIQMTQSPSSLSASVGDRVTITCRASQSINDDLNWYQQKPGKAPKLLIYAASSLQSGVPSRFSGSGSGTDFTLTISSLQPEDFATYYCQQSYSTPLTFGQGTKVEIKR",22.5 nM,0.000402 s⁻¹,17900 M⁻¹ s⁻¹,,,
"I23RB259 (antibody, mouse IgG2a, kappa, V domains shown, phage display; human V regions, mouse IgG2a/kappa constant regions) VH: QVQLVQSGAEVKKPGSSVKVSCKASGGTFSSYGISWVRQAPGQGLEWMGWISPIFGTTNYAQKFQGRVTITADESTSTAYMELSSLRSEDTAVYYCARMMMQSLDYWGQGTLVTVSS VL: not shown",13.4 nM,0.000752 s⁻¹,55900 M⁻¹ s⁻¹,,,
"I23RB319 (antibody, mouse IgG2a, kappa, V domains shown, phage display; human V regions, mouse IgG2a/kappa constant regions) VH: QVQLVQSGAEVKKPGSSVKVSCKASGGTFSSYGISWVRQAPGQGLEWMGWISAIFGTTNYAQKFQGRVTITADESTSTAYMELSSLRSEDTALYYCARPLKQAFDYWGQGTLVTVSS VL: DIQMTQSPSSLSASVGDRVTITCRASQSITDDLNWYQQKPGKAPKLLIYAASSLQSGVPSRFSGSGSGTDFTLTISSLQPEDFATYYCQQSYSTPLTFGQGTKVEIKR",9.05 nM,8.01e-05 s⁻¹,8850 M⁻¹ s⁻¹,,,
"I23RB260 (antibody, mouse IgG2a, kappa, V domains shown, phage display; human V regions, mouse IgG2a/kappa constant regions) VH: QVQLVQSGAEVKKPGSSVKVSCKASGGTFSSYGISWVRQAPGQGLEWMGGIIPIFGTANYAQKFQGRVTITADESTSTAYMELSSLRSEDTAVYYCARDFGWSLWFDYWGQGTLVTVSS VL: not shown",4.75 nM,8.72e-05 s⁻¹,18400 M⁻¹ s⁻¹,,,
"I23RB161 (antibody, mouse IgG2a, kappa, V domains shown, mouse immunization; mouse IgG2a/kappa) VH: EFQLQQSGPELVKPGASVKISCKASVYAFSSSWMNWVKQRPGKGLEWIGRIYPGDGDTNYNGKFKGKATLTADKSSSTAYMQLSSLTSEDSAVYFCARRYDFGSAMDYWGQGTSVTVSS VL: DIVMTQSPAILSASPGEKVTMTCRASSSVSYMHWYQQKPGSSPKPWIYATSDLASGAPARFSGSGSGTSYSLTISRVEAEDAATYYCQQWSSNPPTFGGGTKLEIKR",84.5 nM,0.0274 s⁻¹,324000 M⁻¹ s⁻¹,,,
